Assay results reported in patent publication US20210246166A1 (Bayer, published 2021).
Numbered stars: 1 amine (or outer) side, 2 acyl side, 3 side chain; on linkers, the order of the positions; unused ones are H or OH. Bridge positions count the residues as written; N and C are the ends. Square brackets hold non-standard residues; d marks the D form. Ends that are not written are not given here. * marks the point of attachment. Freidinger's Lactam = (2S)-2-[(3R)-3-amino-2-oxopyrrolidin-1-yl]-4-methylpentanoic acid (Freidinger's lactam), CC(C)C[C@@H](C(=O)[*:2])N1CC[C@@H](N[*:1])C1=O; X10 = (2R)‑2‑amino‑3‑(trifluoromethylsulfanyl)propanoic acid, O=C([C@H](CSC(F)(F)F)N[*:1])[*:2]; X15 = (3S)‑2‑azaspiro(4.4)nonane‑3‑carboxylic acid, O=C([C@@H]1CC2(CCCC2)CN1[*:1])[*:2]; (R)‑Pyrrolidine‑3‑acetic acid = O=C(C[C@H]1CCN([*:1])C1)[*:2]; Ida = iminodiacetic acid, O=C(CN(CC(=O)[*:3])[*:1])[*:2]; X5 = Tetrahydropyranyl‑4‑acetic acid, O=C(CC1CCOCC1)*; Pro(3S,4R-methano) = O=C(O)[C@H]1NC[C@@H]2C[C@@H]21; Oic = O=C(O)[C@@H]1C[C@@H]2CCCC[C@@H]2N1; βPro(3R) = O=C([C@@H]1CCN([*:1])C1)[*:2]; tBuAla = CC(C)(C)C[C@H](N)C(=O)O; Pen = CC(C)(S)[C@H](N)C(=O)O; NMeC = CN[C@@H](CS)C(=O)O; Orn = NCCC[C@H](N)C(=O)O; PEG2 = NCCOCCOCCC(=O)O; Sar = CNCC(=O)O

Experiments:
Assay in all cases: cell-based or functional assay
[1] = target: T1, recombinant rat MASP1 active protease (amino acids 302-704, C-terminal His Tag) (rat, UniProt Q8CHN8 302-704)
T1 sequence: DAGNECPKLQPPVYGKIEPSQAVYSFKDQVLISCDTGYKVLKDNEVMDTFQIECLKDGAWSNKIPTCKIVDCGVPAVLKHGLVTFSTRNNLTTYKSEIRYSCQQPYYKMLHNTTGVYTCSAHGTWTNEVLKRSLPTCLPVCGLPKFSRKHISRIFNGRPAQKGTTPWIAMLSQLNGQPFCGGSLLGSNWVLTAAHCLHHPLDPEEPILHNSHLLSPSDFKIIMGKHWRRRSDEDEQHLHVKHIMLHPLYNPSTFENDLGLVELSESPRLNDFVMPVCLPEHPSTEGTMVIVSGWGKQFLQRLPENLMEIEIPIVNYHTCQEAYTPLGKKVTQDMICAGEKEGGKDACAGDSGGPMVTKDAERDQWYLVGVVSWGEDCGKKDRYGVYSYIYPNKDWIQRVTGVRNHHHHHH

[2] = target: recombinant rat MASP2 active protease (amino acids 296-685, C-terminal His Tag) (rat, UniProt Q9JJS8 296-685)
Chain of recombinant rat MASP2 active protease (amino acids 296-685, C-terminal His Tag) (Q9JJS8 other isoform, or with tags, fused parts or gaps limits assumed): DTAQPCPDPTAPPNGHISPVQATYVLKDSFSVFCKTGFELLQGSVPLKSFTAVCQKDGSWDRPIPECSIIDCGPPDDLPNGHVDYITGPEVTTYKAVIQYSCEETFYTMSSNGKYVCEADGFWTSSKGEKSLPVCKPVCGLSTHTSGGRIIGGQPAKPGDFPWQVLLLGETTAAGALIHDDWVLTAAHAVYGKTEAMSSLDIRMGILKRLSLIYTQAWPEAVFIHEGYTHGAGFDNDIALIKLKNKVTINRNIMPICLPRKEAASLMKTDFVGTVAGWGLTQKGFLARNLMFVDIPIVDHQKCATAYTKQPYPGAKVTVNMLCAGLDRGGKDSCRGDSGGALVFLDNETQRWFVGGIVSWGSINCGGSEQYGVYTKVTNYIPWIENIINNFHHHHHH

[3] = target: T2, recombinant human MASP1 active protease (amino acids 297-699, C-terminal His Tag) (human, UniProt P48740 297-699)
T2 sequence: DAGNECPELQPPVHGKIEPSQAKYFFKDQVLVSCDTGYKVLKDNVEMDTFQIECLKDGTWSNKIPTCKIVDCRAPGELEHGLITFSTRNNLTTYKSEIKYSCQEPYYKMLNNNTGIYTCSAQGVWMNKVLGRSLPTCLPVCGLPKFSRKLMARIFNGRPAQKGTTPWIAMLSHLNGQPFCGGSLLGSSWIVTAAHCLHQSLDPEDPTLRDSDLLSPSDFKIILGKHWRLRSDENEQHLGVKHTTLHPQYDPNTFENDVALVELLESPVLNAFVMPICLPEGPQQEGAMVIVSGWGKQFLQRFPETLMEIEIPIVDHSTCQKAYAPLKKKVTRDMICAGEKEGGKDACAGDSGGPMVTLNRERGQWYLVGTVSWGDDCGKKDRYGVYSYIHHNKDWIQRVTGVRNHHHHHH

[4] = target: recombinant human MASP2 active protease (amino acids 297-686, C-terminal His Tag) (human, UniProt O00187 297-686)
Chain of recombinant human MASP2 active protease (amino acids 297-686, C-terminal His Tag) (O00187 other isoform, or with tags, fused parts or gaps limits assumed): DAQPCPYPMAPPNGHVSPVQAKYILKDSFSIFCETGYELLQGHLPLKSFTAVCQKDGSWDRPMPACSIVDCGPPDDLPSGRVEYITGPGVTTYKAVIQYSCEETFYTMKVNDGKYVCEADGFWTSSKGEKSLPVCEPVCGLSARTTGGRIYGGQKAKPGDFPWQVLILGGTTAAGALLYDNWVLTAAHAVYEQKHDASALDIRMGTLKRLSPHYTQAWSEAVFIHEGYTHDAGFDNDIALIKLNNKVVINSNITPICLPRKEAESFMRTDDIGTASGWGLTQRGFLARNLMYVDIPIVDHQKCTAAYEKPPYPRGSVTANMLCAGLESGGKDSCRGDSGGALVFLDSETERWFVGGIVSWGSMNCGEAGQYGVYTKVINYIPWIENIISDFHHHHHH

| Binder | rat MASP1 IC50 [1] [nM] | rat MASP2 IC50 [2] [nM] | human MASP1 IC50 [3] [nM] | human MASP2 IC50 [4] [nM] |
| --- | --- | --- | --- | --- |
| [Sar]ICSRSLP[Oic]I[Pen]IP[Freidinger's Lactam]-OH (disulfide 3-11; N-terminus assumed; SMILES CC[C@H](C)[C@H](NC(=O)CNC)C(=O)N[C@H]1CSSC(C)(C)[C@@H](C(=O)N[C@H](C(=O)N2CCC[C@H]2C(=O)N[C@@H]2CCN([C@@H](CC(C)C)C(=O)O)C2=O)[C@@H](C)CC)NC(=O)[C@H]([C@@H](C)CC)NC(=O)[C@@H]2C[C@@H]3CCCC[C@@H]3N2C(=O)[C@@H]2CCCN2C(=O)[C@H](CC(C)C)NC(=O)[C@H](CO)NC(=O)[C@H](CCCNC(=N)N)NC(=O)[C@H](CO)NC1=O) [Example 527: ((N-Me)G)-IC+SRSLP-(Oic)-I-(Pen)+IP-(Freidinger's Lactam)-OH] | 240 | 42 | – | – |
| [Sar]ICSRS[tBuAla]P[X15]I[Pen]IPD-OH (disulfide 3-11; N-terminus assumed; SMILES CC[C@H](C)[C@H](NC(=O)CNC)C(=O)N[C@H]1CSSC(C)(C)[C@@H](C(=O)N[C@H](C(=O)N2CCC[C@H]2C(=O)N[C@@H](CC(=O)O)C(=O)O)[C@@H](C)CC)NC(=O)[C@H]([C@@H](C)CC)NC(=O)[C@@H]2CC3(CCCC3)CN2C(=O)[C@@H]2CCCN2C(=O)[C@H](CC(C)(C)C)NC(=O)[C@H](CO)NC(=O)[C@H](CCCNC(=N)N)NC(=O)[C@H](CO)NC1=O) | 26 | 74.1 | – | – |
| {Tetrahydro‑2H‑pyran‑3‑ylacetic acid}-ICSRSLP[Oic]I[Pen]IP-NH2 (disulfide 2-10) [Example 304: (Tetrahydro-2H-pyran-3-ylacetic acid)-IC+SRSLP-(Oic)-I-(Pen)+IP-NH2] | – | – | 19 | 27 |
| [Sar]ICSRS[tBuAla]PPI[Pen]IP-{PEG5‑CH2CO2H(18 atoms)-OH} (disulfide 3-11) [Example 496: ((N-Me)G)-IC+SRS-((tBu)A)-PPI-(Pen)+IP-(PEG5-CH2CO2H(18 atoms))-OH] | 31 | 31 | – | – |
| [Sar]ICSRS[tBuAla]PPI[Pen]IP-{PEG2-OH} (disulfide 3-11) [Example 498: ((N-Me)G)-IC+SRS-((tBu)A)-PPI-(Pen)+IP-(PEG1(10 atoms))-OH] | 44 | 42 | – | – |
| [Sar]ICSRSLP[Oic]I[Pen]IPDA-OH (disulfide 3-11; N-terminus assumed; SMILES CC[C@H](C)[C@H](NC(=O)CNC)C(=O)N[C@H]1CSSC(C)(C)[C@@H](C(=O)N[C@H](C(=O)N2CCC[C@H]2C(=O)N[C@@H](CC(=O)O)C(=O)N[C@@H](C)C(=O)O)[C@@H](C)CC)NC(=O)[C@H]([C@@H](C)CC)NC(=O)[C@@H]2C[C@@H]3CCCC[C@@H]3N2C(=O)[C@@H]2CCCN2C(=O)[C@H](CC(C)C)NC(=O)[C@H](CO)NC(=O)[C@H](CCCNC(=N)N)NC(=O)[C@H](CO)NC1=O) [Example 494: ((N-Me)G)-IC+SRSLP-(Oic)-I-(Pen)+IPDA-OH] | 38 | 62 | – | – |
| [Sar]ICSRSLP[Oic]I[Pen]IPG[dD]-OH (disulfide 3-11; N-terminus assumed; SMILES CC[C@H](C)[C@H](NC(=O)CNC)C(=O)N[C@H]1CSSC(C)(C)[C@@H](C(=O)N[C@H](C(=O)N2CCC[C@H]2C(=O)NCC(=O)N[C@H](CC(=O)O)C(=O)O)[C@@H](C)CC)NC(=O)[C@H]([C@@H](C)CC)NC(=O)[C@@H]2C[C@@H]3CCCC[C@@H]3N2C(=O)[C@@H]2CCCN2C(=O)[C@H](CC(C)C)NC(=O)[C@H](CO)NC(=O)[C@H](CCCNC(=N)N)NC(=O)[C@H](CO)NC1=O) [Example 495: ((N-Me)G)-IC+SRSLP-(Oic)-I-(Pen)+IPGd-OH] | 45 | 66 | – | – |
| [Sar]ICSRS[tBuAla]P[Pro(3S,4R-methano)]I[Pen]IPD-OH (disulfide 3-11; N-terminus assumed; SMILES CC[C@H](C)[C@H](NC(=O)CNC)C(=O)N[C@H]1CSSC(C)(C)[C@@H](C(=O)N[C@H](C(=O)N2CCC[C@H]2C(=O)N[C@@H](CC(=O)O)C(=O)O)[C@@H](C)CC)NC(=O)[C@H]([C@@H](C)CC)NC(=O)[C@@H]2[C@H]3C[C@H]3CN2C(=O)[C@@H]2CCCN2C(=O)[C@H](CC(C)(C)C)NC(=O)[C@H](CO)NC(=O)[C@H](CCCNC(=N)N)NC(=O)[C@H](CO)NC1=O) | 485 | 253 | – | – |
| [Sar]ICSRSLP[Oic]I[Pen]IP[βPro(3R)]-OH (disulfide 3-11; N-terminus assumed; SMILES CC[C@H](C)[C@H](NC(=O)CNC)C(=O)N[C@H]1CSSC(C)(C)[C@@H](C(=O)N[C@H](C(=O)N2CCC[C@H]2C(=O)N2CC[C@@H](C(=O)O)C2)[C@@H](C)CC)NC(=O)[C@H]([C@@H](C)CC)NC(=O)[C@@H]2C[C@@H]3CCCC[C@@H]3N2C(=O)[C@@H]2CCCN2C(=O)[C@H](CC(C)C)NC(=O)[C@H](CO)NC(=O)[C@H](CCCNC(=N)N)NC(=O)[C@H](CO)NC1=O) [Example 532: ((N-Me)G)-IC+SRSLP-(Oic)-I-(Pen)+IP-((R)-Pyrrolidine-3-carboxylic acid)-OH] | 24.2 | 17.6 | – | – |
| [Sar]ICSRS[tBuAla]PPI[Pen]IP[Sar][Sar][Sar]-OH (disulfide 3-11; N-terminus assumed; SMILES CC[C@H](C)[C@H](NC(=O)CNC)C(=O)N[C@H]1CSSC(C)(C)[C@@H](C(=O)N[C@H](C(=O)N2CCC[C@H]2C(=O)N(C)CC(=O)N(C)CC(=O)N(C)CC(=O)O)[C@@H](C)CC)NC(=O)[C@H]([C@@H](C)CC)NC(=O)[C@@H]2CCCN2C(=O)[C@@H]2CCCN2C(=O)[C@H](CC(C)(C)C)NC(=O)[C@H](CO)NC(=O)[C@H](CCCNC(=N)N)NC(=O)[C@H](CO)NC1=O) [Example 497: ((N-Me)G)-IC+SRS-((tBu)A)-PPI-(Pen)+IP-((N-Me)G)-((N-Me)G)-((N-Me)G)-OH] | 58 | 39 | – | – |
| [Orn]ICSRS[X10]PPI[Pen]IPD-OH (disulfide 3-11; N-terminus assumed; SMILES CC[C@H](C)[C@H](NC(=O)[C@@H](N)CCCN)C(=O)N[C@H]1CSSC(C)(C)[C@@H](C(=O)N[C@H](C(=O)N2CCC[C@H]2C(=O)N[C@@H](CC(=O)O)C(=O)O)[C@@H](C)CC)NC(=O)[C@H]([C@@H](C)CC)NC(=O)[C@@H]2CCCN2C(=O)[C@@H]2CCCN2C(=O)[C@H](CSC(F)(F)F)NC(=O)[C@H](CO)NC(=O)[C@H](CCCNC(=N)N)NC(=O)[C@H](CO)NC1=O) [Example 529: (Orn)-IC+SRS-((2R)-2-amino-3-(trifluoromethylsulfanyl)propanoic acid)-PPI-(Pen)+IPD-OH] | 730 | 100 | – | – |
| [Sar]ICSRSLP[Oic]I[Pen]IP[(R)‑Pyrrolidine‑3‑acetic acid]-OH (disulfide 3-11; N-terminus assumed; SMILES CC[C@H](C)[C@H](NC(=O)CNC)C(=O)N[C@H]1CSSC(C)(C)[C@@H](C(=O)N[C@H](C(=O)N2CCC[C@H]2C(=O)N2CC[C@H](CC(=O)O)C2)[C@@H](C)CC)NC(=O)[C@H]([C@@H](C)CC)NC(=O)[C@@H]2C[C@@H]3CCCC[C@@H]3N2C(=O)[C@@H]2CCCN2C(=O)[C@H](CC(C)C)NC(=O)[C@H](CO)NC(=O)[C@H](CCCNC(=N)N)NC(=O)[C@H](CO)NC1=O) [Example 530: ((N-Me)G)-IC+SRSLP-(Oic)-I-(Pen)+IP-((R)-Pyrrolidine-3-acetic acid)-OH] | 23.3 | 18.4 | – | – |
| X5-ICSRS[tBuAla]PPI[NMeC]I-NH2 (disulfide 2-10; SMILES CC[C@H](C)[C@H](NC(=O)[C@@H]1CSSC[C@H](NC(=O)[C@@H](NC(=O)CC2CCOCC2)[C@@H](C)CC)C(=O)N[C@@H](CO)C(=O)N[C@@H](CCCNC(=N)N)C(=O)N[C@@H](CO)C(=O)N[C@@H](CC(C)(C)C)C(=O)N2CCC[C@H]2C(=O)N2CCC[C@H]2C(=O)N[C@@H]([C@@H](C)CC)C(=O)N1C)C(N)=O) [Example 305: (Tetrahydropyranyl-4-acetic acid)-IC+SRS-((tBu)A)-PPI-((N-Me)C)+I-NH2] | – | – | 19 | 9.4 |
| [dP]ICSRSLP[Oic]I[Pen]IP[Ida]-OH (disulfide 3-11; also: HCl salt) [Example 528: pIC+SRSLP-(Oic)-I-(Pen)+IP-(Ida)-OH (HCl salt)] | 420 | 8.2 | – | – |
